Assay results from patent publication US10005846 (LIFEARC, dated 2018).

T1: cynomolgus monkey TG2 (cynomolgus monkey, UniProt A0A2K5VXI8 1-687)
T1 sequence: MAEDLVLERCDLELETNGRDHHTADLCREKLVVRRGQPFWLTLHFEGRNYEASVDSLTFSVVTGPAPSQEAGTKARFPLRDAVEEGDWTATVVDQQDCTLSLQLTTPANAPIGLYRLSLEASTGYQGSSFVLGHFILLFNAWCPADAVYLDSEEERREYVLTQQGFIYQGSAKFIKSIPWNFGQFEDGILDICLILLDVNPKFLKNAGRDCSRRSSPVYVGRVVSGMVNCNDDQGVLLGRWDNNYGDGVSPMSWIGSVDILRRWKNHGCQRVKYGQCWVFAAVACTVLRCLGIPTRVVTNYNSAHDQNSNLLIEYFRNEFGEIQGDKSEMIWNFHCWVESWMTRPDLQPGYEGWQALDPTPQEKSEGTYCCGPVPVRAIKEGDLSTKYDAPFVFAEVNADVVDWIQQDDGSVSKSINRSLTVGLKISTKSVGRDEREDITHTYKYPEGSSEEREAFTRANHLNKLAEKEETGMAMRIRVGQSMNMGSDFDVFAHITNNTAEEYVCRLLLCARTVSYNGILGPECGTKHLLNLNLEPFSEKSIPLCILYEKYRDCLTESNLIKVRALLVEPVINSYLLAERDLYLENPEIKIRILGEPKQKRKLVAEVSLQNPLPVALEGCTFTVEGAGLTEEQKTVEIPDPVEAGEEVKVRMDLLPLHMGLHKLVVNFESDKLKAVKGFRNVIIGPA

T2: human transglutaminase type 2 (TG2) (human, UniProt P21980 1-687)
T2 construct: Recombinant full-length human TG2 (Zedira; cat; T002 in the Biacore work); Also used here for the endogenous TG2 of HepG2 lysate and HK-2 cells; also called hTG2; rhTG2
T2 sequence: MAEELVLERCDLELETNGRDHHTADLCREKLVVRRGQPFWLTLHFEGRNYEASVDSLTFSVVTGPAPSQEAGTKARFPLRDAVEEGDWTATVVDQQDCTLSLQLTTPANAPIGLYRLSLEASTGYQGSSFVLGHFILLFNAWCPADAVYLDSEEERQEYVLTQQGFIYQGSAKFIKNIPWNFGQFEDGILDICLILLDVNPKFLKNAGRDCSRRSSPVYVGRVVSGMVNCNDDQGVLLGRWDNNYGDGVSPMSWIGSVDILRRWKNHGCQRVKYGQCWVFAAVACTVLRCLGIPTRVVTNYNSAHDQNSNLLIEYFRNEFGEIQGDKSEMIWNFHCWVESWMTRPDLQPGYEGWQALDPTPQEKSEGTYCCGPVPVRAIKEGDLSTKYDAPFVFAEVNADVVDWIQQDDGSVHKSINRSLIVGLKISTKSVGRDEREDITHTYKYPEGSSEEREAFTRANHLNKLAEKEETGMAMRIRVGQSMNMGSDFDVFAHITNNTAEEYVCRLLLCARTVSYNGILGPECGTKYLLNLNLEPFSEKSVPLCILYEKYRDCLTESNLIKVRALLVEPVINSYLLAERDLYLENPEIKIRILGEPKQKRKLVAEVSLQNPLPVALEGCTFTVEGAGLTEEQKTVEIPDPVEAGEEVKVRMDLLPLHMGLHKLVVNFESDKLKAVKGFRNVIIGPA


Assays:
cynomolgus monkey TG2 [1] = biological target: T1, cynomolgus monkey TG2; assay: cell-based or functional assay
[2] = biological target: T2, human transglutaminase type 2 (TG2); assay: ELISA on immobilised human TG2; r2 0.9985; EC50 95% confidence range 0.3927 to 0.4971 [panel A]
Experimental: (§1) Antibody binding to human and cynomolgus monkey TG2 was determined in an ELISA assay. Clear polystyrene "Maxisorp" 96-well plates (Nunc) were coated with 50 ng purified human or cynomogulus monkey TG2 in 50 µl 0.05 M carbonate-bicarbonate buffer pH 9.6 at 4° C. overnight. Control wells were coated with 50 µl 100 µg/ml bovine serum albumin (BSA). Plates were washed 3× with 300 µl phosphate-buffered saline pH7.4 (PBS) containing 0.1% Tween 20 (PBST) and blocked with 300 µl 3% w/v Marvel skimmed milk in PBS for 1 hour at room temperature. After 3× wash with PBST, 50 µl protein-A purified chimeric or humanised anti-TG2 antibodies or human IgG1 kappa […] control antibody or CUB7402 (Abcam) were serially diluted 4-fold from a top concentration of 50 nM in PBS, and added to the plate in duplicate. […] After 3× washes with PBST, the plates were developed with 50 µl TMB substrate (Sigma) for 5 min at room temperature before stopping the reaction with 25 µl 0.5M H2SO4 and reading absorbance at 450 nm in a microtiter plate reader (BioTek EL808). Dose response curves were analysed and EC50 values and other statistical parameters determined using a 4-parameter logistical fit of the data (GraphPad Prism).

cynomolgus monkey TG2 [3] = biological target: T1, cynomolgus monkey TG2; assay: ELISA on immobilised cynomolgus monkey TG2; r2 0.9993; EC50 95% confidence range 0.3887 to 0.4489 [panel A]
Experimental: as §1

[4] = biological target: T2, human transglutaminase type 2 (TG2); assay: cell-based or functional assay
cynomolgus monkey TG2 [5] = biological target: T1, cynomolgus monkey TG2; assay: SPR (Biacore T200), antibody captured on anti-human IgG1 Fc chip, TG2 injected; calcium condition not marked in the row
Experimental: (§2) Recombinant cynomolgus monkey TG2 was obtained from Trenzyme. Surface plasmon resonance (SPR) was measured on a Biacore T200 instrument (GE Healthcare). CM5 chips (GE Healthcare cat. no.: BR-1006-68) were coated with monoclonal mouse anti-human IgG1 (Fc) (MAH) antibody (GE Healthcare cat. no.: BR-1008-39) by amine-coupling as described in the manufacturers instructions. HBS-EP+ buffer (0.01 M HEPES, 0.15 M NaCl, 3 mM EDTA, 0.05% v/v Surfactant P20) and HBS-P+ buffer (0.01 M HEPES, 0.15 M NaCl, 0.05% Surfactant P20) were purchased from GE Healthcare as 10× stocks (cat. nos.: BR-1006-69 and BR-1006-71). Calcium Chloride solution was obtained from Sigma Aldrich (cat. no.:21115).
(§3) The method employed to determine the affinity of the anti-TG2 antibodies involved the capture of the chimeric or humanised antibodies on a MAH coated CM5 chip, followed by the injection of a series of TG2 samples in running buffer. The running buffer was 1×HBS-P+ containing 1 mM CaCl_2, or 1×HBS-EP+ for calcium-free experiments. Antibody capture was carried out for a contact time of 120 seconds at a flow rate of 10 μl/min resulting in the capture of approximately 40-80 RU. TG2 was injected over the immobilised antibody at concentrations ranging from 25 nM to 400 nM with a contact time up to 600 seconds at a flow rate of 30 μl/min. Dissociation of TG2 was typically measured for up to 5400 seconds (1.5 hours). Regeneration of the chip was then performed using 3 M MgCl_2, for a contact time of 60 seconds at a flow rate of […], followed by a 300 s stabilisation period before the next sample. For each of human and cynomolgus monkey TG2, at least 5 injections at a variety of concentrations were performed in at least two separate experiments.
(§4) Kinetic data were exported from the Biacore T200 Evaluation Software and analysed using GraphPad Prism, where the association phases and dissociation phases were analysed separately using a one phase association model and one-phase exponential decay model respectively. Association rates ($kon$) were calculated for each curve individually, and dissociation rates ($koff$) values from the long dissociation phase data collected. Where $koff$ values were calculated to be $<1\times10^-5$ s^-1, values were set at 1×10^-5 for analysis, as rates slower than this could not be estimated accurately.

[6] = biological target: T2, human transglutaminase type 2 (TG2); assay: as above
Experimental: as §2, §3, §4

[7] = biological target: T2, human transglutaminase type 2 (TG2); assay: cell-based or functional assay; remark: listed apart in the source
[8] = biological target: T2, human transglutaminase type 2 (TG2); assay: cell-based or functional assay; remark: listed apart in the source
[9] = biological target: T2, human transglutaminase type 2 (TG2); assay: anti-huTG2 ELISA of HEK293F supernatants
Experimental: Supernatants from HEK293F cells co-transfected with different combinations of humanised AB1 light chains and AB1 heavy chain vectors were assayed in an anti-human IgG ELISA to determine concentration and in an anti huTG2 ELISA. Each supernatant was assayed in triplicate and $IC50$'s determined.
HEK 293F cells were co-transfected with combinations of different humanised light chain vectors in association with different humanised heavy chain vectors. Recombinant human TG2 was used to measure antibody binding by ELISA. […] A similar approach was used to identify optimal pairs of humanized BB7 heavy and light chains, and humanised DC1 heavy and light chains.

| Binder | Kd (cynomolgus monkey TG2 [5]) [nM] | koff (cynomolgus monkey TG2 [5]) [s⁻¹] | kon (cynomolgus monkey TG2 [5]) [M⁻¹ s⁻¹] | Kd [6] [nM] | koff [6] [s⁻¹] | kon [6] [M⁻¹ s⁻¹] | binding result [9] | further results |
| --- | --- | --- | --- | --- | --- | --- | --- | --- |
| hAB005 (hAB001AJ) humanised AB1 antibody (antibody, V domains shown, captured by anti-human IgG1 (Fc); also called Heavy Chain version RHA with Light Chain version RKJ) VH: EVQLLESGGGLVQPGGSLRLSCAASGFTFSSSAMSWVRQAPGKGLEWVSTISVGGGKTYYPDSVKGRFTISRDNSKNTLYLQMNSLRAEDTAVYYCAKLISLYWGQGTLVTVSS VL: DIQMTQSPSSLSASVGDRVTITCKASQDINSYLTWFQQKPGKAPKSLIYRTNRLFDGVPSRFSGSGSGTDFFLTISSLQPEDFATYYCLQYDDFPYTFGQGTKVEIK | 0.24 | 3.4e-05 | 140000 | < 0.05 | < 1e-05 | 190000 | – | IC50 of enzymatic inhibition, dansylated lysine incorporation into N,N-dimethylated casein; 2 batches shown [continued), panel C] [7]: 6.87 nM; IC50, extracellular TG activity of HK-2 cells, biotin cadaverine incorporation into fibronectin [8]: 71.8 nM |
| VHc/RKE (antibody, V domains shown, also called hAB001HcE) VH: EVQLVESGGGLVKPGGSLKLSCAASGFTLSSSAMSWVRQTPDRRLEWVATISVGGGKTYYPDSVKGRFTISRDNAKNTLYLQMNSLRSEDTAMYYCAKLISLYWGQGTTLTVSS VL: EIVLTQSPSSLSASVGDRVTITCKASQDINSYLTWYQQKPGKAPKLLIYRTNRLFDGVPSRFSGSGSGTDFFFTISSLQPEDFGTYYCLQYDDFPYTFGGGTKLEIK | – | – | – | – | – | – | binds | – |
| RHA/VKc (antibody, V domains shown, also called hAB001AKc) VH: EVQLLESGGGLVQPGGSLRLSCAASGFTFSSSAMSWVRQAPGKGLEWVSTISVGGGKTYYPDSVKGRFTISRDNSKNTLYLQMNSLRAEDTAVYYCAKLISLYWGQGTLVTVSS VL: EIVLTQSPSSMYASLGERVTITCKASQDINSYLTWFQQKPGKSPKTLIYRTNRLFDGVPSRFSGSGSGQDFFLTISSLEYEDMGIYYCLQYDDFPYTFGGGTKLEIK | – | – | – | – | – | – | binds | – |
| VHc/RKJ (antibody, V domains shown, also called hAB001HcJ) VH: EVQLVESGGGLVKPGGSLKLSCAASGFTLSSSAMSWVRQTPDRRLEWVATISVGGGKTYYPDSVKGRFTISRDNAKNTLYLQMNSLRSEDTAMYYCAKLISLYWGQGTTLTVSS VL: DIQMTQSPSSLSASVGDRVTITCKASQDINSYLTWFQQKPGKAPKSLIYRTNRLFDGVPSRFSGSGSGTDFFLTISSLQPEDFATYYCLQYDDFPYTFGQGTKVEIK | – | – | – | – | – | – | binds | – |

Second part, led by results:

| Kd (cynomolgus monkey TG2 [5]) [nM] | koff (cynomolgus monkey TG2 [5]) [s⁻¹] | kon (cynomolgus monkey TG2 [5]) [M⁻¹ s⁻¹] | Kd [6] [nM] | koff [6] [s⁻¹] | kon [6] [M⁻¹ s⁻¹] | binding result [9] | Binder | further results |
| --- | --- | --- | --- | --- | --- | --- | --- | --- |
| < 0.024 | < 1e-05 | 420000 | < 0.03 | < 1e-05 | 320000 | – | cDC001 chimeric antibody (murine DC1 variable regions) (antibody, human IgG1, V domains shown, also called Chimeric DC1) VH: EVQLVESGGGLVKPGGSLKLSCAASGFTLSTHAMSWVRQTPEKRLEWVATISSGGRSTYYPDSVKGRFTISRDNVKNTLYLQLSSLRSEDTAVYFCARLISTYWGQGTTLTVSS VL: DITMTQSPSSIYASLGERVTITCKASQDINSYLTWFQQKPGKSPKILIYLVNRLVDGVPSRFSGSGSGQDYALTISSLEYEDMGIYYCLQYDDFPYTFGGGTKLEIK | IC50 of enzymatic inhibition, dansylated lysine incorporation into N,N-dimethylated casein [panel A] (cynomolgus monkey TG2 [1]): 5.86 nM; EC50 [2]: 0.442 nM; EC50 (cynomolgus monkey TG2 [3]): 0.418 nM; IC50 of enzymatic inhibition, dansylated lysine incorporation into N,N-dimethylated casein [continued), panel C] [4]: 0.851 nM |
| – | – | – | – | – | – | binds | RHA/VKc1 (antibody, V domains shown, also called hAB001AKc1) VH: EVQLLESGGGLVQPGGSLRLSCAASGFTFSSSAMSWVRQAPGKGLEWVSTISVGGGKTYYPDSVKGRFTISRDNSKNTLYLQMNSLRAEDTAVYYCAKLISLYWGQGTLVTVSS VL: DIQMTQSPSSMYASLGERVTITCKASQDINSYLTWFQQKPGKSPKTLIYRTNRLFDGVPSRFSGSGSGQDFFLTISSLEYEDMGIYYCLQYDDFPYTFGGGTKLEIK | – |
